# Results: the nanobody polyreactivity screen of Harvey et al. (2022)
# Assay: yeast display, Sf9 membrane polyspecificity reagent, FACS + sequencing; frameworks hold sequencing errors
# In short: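 In a synthetic yeast display library (Saccharomyces cerevisiae BJ5465), nanobody expression was induced with galactose for 36–48 hours. FACS gates were set low and high (top ~1%) using anti-HA fluorescence for expression and streptavidin fluorescence for binding of the Sf9 membrane reagent. Each polyreactivity label is drawn from the gate of origin.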
row,Sequence,polyreactivity (PSR sort gate)
1,QVQLVESGGGLVQAGGSLRLSCAASGSTFQWNAMGWYRQAPGKERELVASITDSGGRTYYADSVKGRFTISRDNAKNTVYLQMNSLKPEDTAVYYCAAVSLWWSDYYFVEYDYWGQGTQVTVSS,high polyreactivity
2,QVQLVESGGGLVQAGGSLRLSCAASGSTFWPYAMGWYRQAPGKERELVAAITRSGGSTYYADSVKGRFTISRDNAKNTVYLQMNSLKPEDTAVYYCAKYTSSRFEYDYWGQGTQVTVSS,low polyreactivity
3,QVQLVESGGGLVQAGGSLHLSCAASGFTFGRYAMGWFRQAPGKERELVAAISRRGGSTYYADSVKGRFTISRDNANNTVYLQMNSLKPEDTAVYYCNVDKYRIVGFHSPYDYWVQGTQVTVSS,high polyreactivity
4,QVQLVESGGGLVQAGGSLRLSCAASGRIIDLNAMGWYRQAPGKERQLVAAISYSGGRTFYADSVKGRFTISRDNAKNTVYLQMNSLKPEDTAVYYCNARYGKPAYQYGMDYWGQGTQVTVSS,low polyreactivity
5,QVQLVESGGGLVQAGGSLRLSCAASGSILKRYAMGWYRQAPGKERELVAAITRRGGSTYYADSVKGRFTISRDNAKNTVYLQMNSLKPEDTAVYYCNAYTYSATVPIFTNYGYWGQGTQVTVSS,high polyreactivity
6,QVQLVESGGGLVQAGGSLRLSCAASGRIIPKYAMGWYRQAPGKERELVAAISSSGGSTYYADSVKGRFTISRDNAKNTVYLQINSLKPEDTAVYYCNVDKATRYRYPGFDYWGQGTQVTVSS,high polyreactivity
7,QVQLVESGGGLVQAGGSLRLSCAASGFIIKFYAMGWYRQAPGKERELVATITISSGTTYYADSVKGRFTISRDTAKNTVYLQMNSLKPEDTAVYYCAASTLPAWPYDGPAGPRYDYWGQGTQVTVSS,low polyreactivity
8,QVQLVESGGGLVQAGGSLRLSCAASGRIFYGYAMGWYRQAPGKERELVASITVSRTSTYYADSVKGRFTISRDNAKNTVYLQMNSLKPEDTAVYYCAVGDGFEYDWGQGTQVTVSS,low polyreactivity
9,HVQLVESGGGLVQAGGSLRLSCAASGSILDGKALGWYRQAPGKERERVAGISESDGSTNYADSVKGRFTISRDNAKNTVYLQMNSLKPEDTAVSYCAADIWTSGDIPYDYWGQGTQVTVSS,low polyreactivity
10,QDQHVESGGGLVQAGGSLRLSCAASGSTFTGYDMGRYRQAPGKERELVAAISWNGGSTYYADSVKGRFTISRDNAKNTVYLQMNSLKPEDTAVYYCAKVTLTHSRFRYYYWGQGTQVTVSS,high polyreactivity
11,QVQLVESGGGLVQAGGSLRLSCAASAFTFPGNAMGWYRHATGKERQLVAAISGTGGSTYYADSVKGRFTISRDNAKNTVYLQMNSLKPEDTAVYYCAARLGGRRRFGYWGQGTQVTVSS,high polyreactivity
12,QVQLVESGGGLVQAGGSLRLSCAASGSIYVNTMGWYRQAPGKEREFVAAITRRGGSTYYADSVKGRFTISRDNAKNTVYLQMNSLKPEDTAVYYCNADNRYSAHDYWGQGTQVTVSS,high polyreactivity
13,QVQLVESGGGLVQAGGSLRLSCAASGSTLFFNARGWYRQAPGKERELVAGITDGGNTNYADSVKGRFTISRDNAKNTVYLQMNSLKPEDTAVYYCNARYSKKGESQREYDYWGQGTQVTVSS,low polyreactivity
14,QVQLVESGGGLVQAGGSLRLSCAASGRIFQHNTMGWYRQAPGKEREFVAAIRRSGGSTYYADSVKGRFTISRDNAKNTVYLQMNSLKPEDTAVYYCAARDYPTGTRRWGGGDSWGQGTQVTVSS,low polyreactivity
15,QVQLVESGGGLVQAGGSLRLSCAASGFTFLKYAMGWYRQAPGKERELVAAISWSGGRTFYADSVKGRFTISRDNAKNTVYLQMISLKPEDTAVYYCATRTRGSVYRFDYWGQGTQVTVSS,high polyreactivity
16,QVQLVESGGGLVQAGVSLRLSCAASGRTFFYNAMGWYRQAPGKERELVAAISSGGGYTYYADSVKGRFTISRDNAKNTVYLQMNSLKPEDTAVYYCAAASYRQPGYGYWGQGTQVTVSS,high polyreactivity
17,QVQLVESGGGLVQAGGSLRLSCAASGITFRQYAMGWYRQAPGKERELVAVITSRGGTTYYAVSVKGRFTISRDNAKNTVYLQMNSLKPEDTAVYYCAARYPSYDFYYWGQGTQVTVSS,high polyreactivity
18,QVQLVESGGGLVQAGGSLRLSCAASGSTFQVNVMGWYRPAPGKEREFVAGISYSGGSTYYADSVKGRFTISRDNAKNTVYLQMNSLKPDDTAVYYCAAEEDYNIAGSWTYTYDYWGQGTQVTVSS,low polyreactivity
19,QVQLVESGGGLVQAGGSLRLSCAASGFTFRVYAMGWYRQAPGKERELVAAISSGGSTNYADSVKGRFTISRDNAKNTVYLQMNSLKPEDTAVYYCAARTYRWYGPGSYGYWGQGTQVTVSS,high polyreactivity
20,QVQLVESGGGLVQAGGSLRLSCAASGRTFRLYAMGWSRQAPGKERELVAAITRGGRTNYADSVKGRFTISRDNAKTTVYLQMTSLKPEDTAVYYCAARYVERHTDYYYWGQGTQVTVSS,low polyreactivity
21,QVQLVESGGGLVQAGGSLRLSCAASGSTFSGYAMGWYRQAPGKERELVAAISYSGGGTYYEDSVKGRFTISRDNAKNTVYLQMNSLKPEDTAVYYCATLGSLRYYWPGYDYWGQGTQVTVSS,low polyreactivity
22,QDQHVESGGGLVQAGGSLRLSCAASARIFVPYAMGWYRQAPGQERELVAAFSWRGGSTNYADSVKGRFTISRDNAKNTVYLQLNSLIPEDTAVYYCAAVPVRYRYSYGYYYWGQGTQVSVSS,high polyreactivity

row,Sequence,polyreactivity (PSR sort gate)
1,QVQLVESGGGLVQAGGSLRLSCAASGRTFVRYAMGWYRQAPGKERELVASIRTGGSTNYADSVKGRFTISRDNAKNTVYLQMNSLKPEDTAVYYCAAPRTYRPWGRMDYWGQGTQVTVSS,high polyreactivity
2,QVQHVESGGGLVQAGGSLRLRCAASGITSRYNDMGWSRQAPGKERELVATITWRGVSTYYADSVKGRFTISRDNAKNTVYVQMNSLKPEDTAVYYCAARRPGYYPYKGFDYWGQGTQVTVSS,high polyreactivity
3,QVQLVESGGGLVQAGGSLRLSCAASGSTFWYYVMGWYRQAPGKERELVAAIDWTGDSTYYADSVKGRFTISRDNAKNTVYLQMNSLKPVDTAVYYCAAQKYYPYSYYLNNDYWGLGTQVTVSS,low polyreactivity
4,QVQLVDSGGGLVQAGVSLRLSCAASGSIFLLNAMGWYRQATGKERELVAAISWGGGSTYYADSVKGRFTISRDNAKNTVYLQMNSLKPEDTAVDYCNASVTLGQEVDYWGLGTQVTVSS,low polyreactivity
5,QVQLVESGGGLVQAGGSLRLSCAASGSTFRYYAMGWYRQAPGKERELVAAINSGGSTYYADSVKGRFTISRDNAKNTVYLQMNSLKPEDTAVYYCAAYYFWYLYWGQGTQVTVSS,high polyreactivity
6,QVQLVESGGGLVQAGGSLRLSCAATGIIFSWYDMGWYRQAPGKERELVAAITSGGSTYYADSVKGRFTISRDNAKNTVYLLMNSLKPEDTAVYYCNRYSYLFPYYWKYDYCGQGTQVTVSS,high polyreactivity
7,QVQLQESGGGLVQAGGSLRLRCAASRNISGSSDLGWYHQAPGKEREFVASITSGGTTYYADSVKGRFTISRDNAKNTVYLQMNSLKPEDTAVYYCAAESRYPFIYEYWGQGTQVTVSS,low polyreactivity
8,QVQLVESGGGLVQAGGSLRLSCAASGFTFYIYAMGWYRQAPGKERELVAAITTTTGSTYYADSVKGRFTISRDNAKNTVYLQMNSLKPEDTAVYYCAAEGHYYYFGYYYWGQGTQVTVSS,low polyreactivity
9,QVQLVESGGGLVQAGGSLRLSCAASGRTYVPNAMGWYRQAPGKEREFVAAITSRGGRTFYADSVKGRFTISRDNAKNTVYLQMNSLKPDDTAVYYCAAYRPGFVYGRLDYWGQGTQVTVSS,high polyreactivity
10,QVQLVESGGGLVQAGGSLRLSCAASGRTLTYNVMGWYRQAPGKERELVASISSSGSSTHYADSVKGRFTISRDNAKNTVYLQMNSLKPEDTAVYYCAVEFWRPFWTRFDYWGQGTQVTVSS,high polyreactivity
11,QVQLVESGGGLVQAGGSLRLSCAASGRTFRHNAMGWYRQAPGKERELVATINRGGNTYYADSVKGRFTISRDNAKNTVYLQMNSLKPEDTAVYYCAARRSFLFDEGNYWGQGTQVTVSS,low polyreactivity
12,QVQLVESGGGLVQAGGSLRLSCAASGRSIKYYAMGWYRQAPGKERELVAAIRSTGGSTYYADSVKGRFTISRDNAKNTVYLQMNSLKPEDTAVYYCNARRYPRYVFSRYVYWGQGTQVNVSS,high polyreactivity
13,QVQLVESGRGLVQAGVSLRLSCAASGRTFVLYTMGWYRQAPGKERELVAAITKSGGSTYYADSVKGRFTISRDNAKNTVYLQMNSLKPEDTAVYYCAAARRYYTYYREDYYYWGQGTLVTVSS,high polyreactivity
14,QVQLVESGRGLVQAGCSLRLSCAASGRIFPWNAMGWYRQAPGKETEFVAAITSGGGTTYYADSVKGRFTISRDTAKITVYLQMNSLKQEDTAVYYCAAPVYTVRGWRGLYGYWGQGSQVTVSS,high polyreactivity
15,QVQLVESGGGLVQAGGSLRLSCAASGSTFDPNAMGWYRQAPGKERELVAVIDSGDGTTYYADSVKGRFTISRDNAKNTVYLQMNSLKPEDTAVYYCAVDESTSYYDDHEDYWGQGTQVTVSS,low polyreactivity
16,QVQLVESGGGLVQAGGSLRLSCAASGRILYRYDMGWYRQAPGKERELVAAISRRGGSTTYADSVKGRFTISRDNAKNTVYLQMNSLKPEDTAVYYCATDYKYAAPTVIESDYWGQGTEVTVSS,high polyreactivity
17,QVQIVESGGGLVQAGGSLRLSCAASGGIYTRYVMGWYRQAPGTERELVAAISSGGSTYYADSVKGRFTISRDNAKNTDYFQMNSLKPEDTAVYYCAAGYYIYLIRKFIYDYWGQGSQVTVSS,high polyreactivity
18,QVQLVESGGGLDQAGGSLRLSWAASGFTFVPYAMGWYRQAPGKERNLVARITGGGGNTYYADSVKGRFTISRDNAKNTVYLQMISLKPEDTAVYYCAADYTNWKTCSNEMYYWGQGTQVTVSS,low polyreactivity
19,QVQLVESGGGLVQAGGSLRLSCAASGFTFPPYAMGWYRQAPGKERELVAAISSAGSTKYADSVKGRFTISRDNAKNTVYLQMNSLKPEDSAVYYCDKKGRTARGRYDYWGQGTQVTVSS,low polyreactivity
20,QVQLVESGGGLVQAGGSLRLSCAASGFTFGSYAMGWYRQAPGKERELVAAISTSGDTTYYADSVKGRFTISRDNAKNTVYLQMNSLKPEDTAVYYCAAYDWGWPYTLIPFYYWGQGTQVTVSS,low polyreactivity
21,QVQLVESGGGLVQAGGSLRLSCAASGSTFYANTMGWYRTAPGKERELVAAITYGGGNTYYADSVKGRFTISRDNAKNTVYLQMNSLKPEDTAVYYCAARDYVSYYTRFDYWGQGTQVTVSS,high polyreactivity
